PMC6102046 (Nature structural & molecular biology, 2017)
Values belong to the binder of their own block, whether it stands above or below them.

B1: 6X His/T7-tagged PERK luminal domain (PERK-LD) (domain or fragment, UniProt Q9Z2B5 29-510, looked up)
chain: VAPARSLLAPASETVFGLGAAAAPTSAARVPAVATAEVTVEDAEALPAAAGEPESRATEPDDDVELRPRGRSLVIISTLDGRIAALDAENDGKKQWDLDVGSGSLVSSSLSKPEVFGNKMIIPSLDGDLFQWDRDRESMEAVPFTVESLLESSYKFGDDVVLVGGKSLITYGLSAYSGKLRYICSALGCRRWDSDEMEEEEDILLLQRTQKTVRAVGPRSGSEKWNFSVGHFELRYIPDMETRAGFIESTFKPGGNKEDSKIISDVEEQEATMLDTVIKVSVADWKVMAFSRKGGRLEWEYQFCTPIASAWLVRDGKVIPISLFDDTSYTASEEALGDEEDIVEAARGATENSVYLGMYRGQLYLQSSVRVSEKFPTSPKALESVNGENAIIPLPTIKWKPLIHSPSRTPVLVGSDEFDKCLSNDKYSHEEYSNGALSILQYPYDNGYYLPYYKRERNKRSTQITVRFLDSPHYSKNIRKKD
B3: His-tagged CNPY2 wild type (natural protein, UniProt Q9QXT0 21-182, looked up)
chain: RRSQDLHCGACRALVDELEWEIARVDPKKTIQMGSFRINPDGSQSVVEVPYARSEAHLTELLEEVCDRMKEYGEQIDPSTHRKNYVRVVSRNGESSELDLQGIRIDSDISGTLKFACESIVEEYEDELIEFFSREADNVKDKLCSKRTDLCDHALHRSHDEL
B4: His-tagged CNPY2 3C-A mutant (C28A, C31A, C86A) (natural protein, UniProt Q9QXT0 21-182, looked up)
chain: RRSQDLHAGAARALVDELEWEIARVDPKKTIQMGSFRINPDGSQSVVEVPYARSEAHLTELLEEVADRMKEYGEQIDPSTHRKNYVRVVSRNGESSELDLQGIRIDSDISGTLKFACESIVEEYEDELIEFFSREADNVKDKLCSKRTDLCDHALHRSHDEL

Key:
Assay in all cases: ITC
[1] = biological target: B3
[2] = biological target: B4
[3] = biological target: T1, CNPY2 (UniProt Q9Y2B0)
T1 chain: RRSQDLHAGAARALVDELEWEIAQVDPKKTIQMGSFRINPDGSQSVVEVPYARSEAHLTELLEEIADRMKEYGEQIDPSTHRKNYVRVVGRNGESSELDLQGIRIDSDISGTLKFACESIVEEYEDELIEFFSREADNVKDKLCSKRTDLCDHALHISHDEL

[4] = biological target: T2, CNPY2 (UniProt Q9Y2B0)
T2 chain: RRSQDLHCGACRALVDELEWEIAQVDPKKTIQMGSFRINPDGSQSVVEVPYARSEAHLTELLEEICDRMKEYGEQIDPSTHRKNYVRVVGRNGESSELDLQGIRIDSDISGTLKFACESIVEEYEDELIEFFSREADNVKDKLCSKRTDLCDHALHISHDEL

[5] = biological target: B1

Binder: B1
- stoichiometry N [1]: 1.16
- stoichiometry N [2]: 1.04

- Kd [3]: 7.5 µM
- Kd [4]: 13.2 µM
B2: PERK LD (protein)
chain: AGRARGLPAPTAEAAFGLGAAAAPTSATRVPAAGAVAAAEVTVEDAEALPAAAGEQEPRGPEPDDETELRPRGRSLVIISTLDGRIAALDPENHGKKQWDLDVGSGSLVSSSLSKPEVFGNKMIIPSLDGALFQWDQDRESMETVPFTVESLLESSYKFGDDVVLVGGKSLTTYGLSAYSGKVRYICSALGCRQWDSDEMEQEEDILLLQRTQKTVRAVGPRSGNEKWNFSVGHFELRYIPDMETRAGFIESTFKPNENTEESKIISDVEEQEAAIMDIVIKVSVADWKVMAFSKKGGHLEWEYQFCTPIASAWLLKDGKVIPISLFDDTSYTSNDDVLEDEEDIVEAARGATENSVYLGMYRGQLYLQSSVRISEKFPSSPKALESVTNENAIIPLPTIKWKPLIHSPSRTPVLVGSDEFDKCLSNDKFSHEEYSNGALSILQYPYDNGYYLPYYKRERNKRSTQITVRFLDNPHYNKNIRKKD

Binder: B3
- Kd [5]: 13.2 µM

Binder: B4
- Kd [5]: 7.5 µM
